Earlier results, collected in US20240156960A1 (priority 2020, published 2024).

How the values were obtained:
SARS-CoV2 S; RBD = SARS-CoV2 S; RBD (Severe acute respiratory syndrome coronavirus 2, UniProt P0DTC2); details: epitope S
NL63 S = NL63 S (Human coronavirus NL63, UniProt Q6Q1S2); details: Protein + Epitope S, Unk
SARS-CoV2 S = SARS-CoV2 S (Severe acute respiratory syndrome coronavirus 2, UniProt P0DTC2); details: Protein + Epitope S, Unk
SARS-CoV1 S = SARS-CoV1 S (Severe acute respiratory syndrome coronavirus, UniProt P59594)
OC43 S = OC43 S (Human coronavirus OC43, UniProt P36334); details: Protein + Epitope S, Unk
Chain of OC43 S (P36334 14-1353): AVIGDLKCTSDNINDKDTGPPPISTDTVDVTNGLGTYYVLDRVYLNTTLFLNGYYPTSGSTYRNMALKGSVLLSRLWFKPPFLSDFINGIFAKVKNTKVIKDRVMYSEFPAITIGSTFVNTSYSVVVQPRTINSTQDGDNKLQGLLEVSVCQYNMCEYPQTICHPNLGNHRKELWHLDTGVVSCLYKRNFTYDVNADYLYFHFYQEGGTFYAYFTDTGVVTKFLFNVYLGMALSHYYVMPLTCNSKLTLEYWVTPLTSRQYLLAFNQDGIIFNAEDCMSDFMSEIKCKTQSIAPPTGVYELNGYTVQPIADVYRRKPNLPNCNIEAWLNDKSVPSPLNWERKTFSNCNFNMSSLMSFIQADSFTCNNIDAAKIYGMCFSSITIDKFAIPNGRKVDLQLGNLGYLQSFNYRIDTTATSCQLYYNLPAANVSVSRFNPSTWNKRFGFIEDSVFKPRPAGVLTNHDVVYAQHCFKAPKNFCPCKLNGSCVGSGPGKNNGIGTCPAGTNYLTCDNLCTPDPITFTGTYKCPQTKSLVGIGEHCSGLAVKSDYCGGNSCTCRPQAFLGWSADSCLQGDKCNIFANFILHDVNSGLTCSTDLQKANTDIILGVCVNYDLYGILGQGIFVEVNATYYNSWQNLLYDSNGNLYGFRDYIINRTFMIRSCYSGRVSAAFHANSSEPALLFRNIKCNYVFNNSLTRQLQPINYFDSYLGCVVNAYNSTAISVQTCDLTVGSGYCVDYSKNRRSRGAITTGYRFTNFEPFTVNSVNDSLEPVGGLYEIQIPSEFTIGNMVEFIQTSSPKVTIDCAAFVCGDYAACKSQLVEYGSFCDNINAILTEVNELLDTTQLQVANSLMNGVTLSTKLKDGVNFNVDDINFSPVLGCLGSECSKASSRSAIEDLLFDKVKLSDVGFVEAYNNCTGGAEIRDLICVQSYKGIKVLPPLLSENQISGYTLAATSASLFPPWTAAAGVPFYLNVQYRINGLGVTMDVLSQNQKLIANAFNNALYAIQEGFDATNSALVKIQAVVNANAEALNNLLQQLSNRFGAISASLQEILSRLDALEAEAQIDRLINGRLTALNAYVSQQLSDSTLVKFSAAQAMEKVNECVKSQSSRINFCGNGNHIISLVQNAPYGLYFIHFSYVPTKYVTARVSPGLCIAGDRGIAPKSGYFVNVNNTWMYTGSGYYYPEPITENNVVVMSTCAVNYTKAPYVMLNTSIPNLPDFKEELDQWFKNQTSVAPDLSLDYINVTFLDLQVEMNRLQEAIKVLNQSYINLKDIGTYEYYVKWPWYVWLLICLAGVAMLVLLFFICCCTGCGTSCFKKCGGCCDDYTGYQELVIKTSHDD

Chain of NL63 S (Q6Q1S2 19-1356): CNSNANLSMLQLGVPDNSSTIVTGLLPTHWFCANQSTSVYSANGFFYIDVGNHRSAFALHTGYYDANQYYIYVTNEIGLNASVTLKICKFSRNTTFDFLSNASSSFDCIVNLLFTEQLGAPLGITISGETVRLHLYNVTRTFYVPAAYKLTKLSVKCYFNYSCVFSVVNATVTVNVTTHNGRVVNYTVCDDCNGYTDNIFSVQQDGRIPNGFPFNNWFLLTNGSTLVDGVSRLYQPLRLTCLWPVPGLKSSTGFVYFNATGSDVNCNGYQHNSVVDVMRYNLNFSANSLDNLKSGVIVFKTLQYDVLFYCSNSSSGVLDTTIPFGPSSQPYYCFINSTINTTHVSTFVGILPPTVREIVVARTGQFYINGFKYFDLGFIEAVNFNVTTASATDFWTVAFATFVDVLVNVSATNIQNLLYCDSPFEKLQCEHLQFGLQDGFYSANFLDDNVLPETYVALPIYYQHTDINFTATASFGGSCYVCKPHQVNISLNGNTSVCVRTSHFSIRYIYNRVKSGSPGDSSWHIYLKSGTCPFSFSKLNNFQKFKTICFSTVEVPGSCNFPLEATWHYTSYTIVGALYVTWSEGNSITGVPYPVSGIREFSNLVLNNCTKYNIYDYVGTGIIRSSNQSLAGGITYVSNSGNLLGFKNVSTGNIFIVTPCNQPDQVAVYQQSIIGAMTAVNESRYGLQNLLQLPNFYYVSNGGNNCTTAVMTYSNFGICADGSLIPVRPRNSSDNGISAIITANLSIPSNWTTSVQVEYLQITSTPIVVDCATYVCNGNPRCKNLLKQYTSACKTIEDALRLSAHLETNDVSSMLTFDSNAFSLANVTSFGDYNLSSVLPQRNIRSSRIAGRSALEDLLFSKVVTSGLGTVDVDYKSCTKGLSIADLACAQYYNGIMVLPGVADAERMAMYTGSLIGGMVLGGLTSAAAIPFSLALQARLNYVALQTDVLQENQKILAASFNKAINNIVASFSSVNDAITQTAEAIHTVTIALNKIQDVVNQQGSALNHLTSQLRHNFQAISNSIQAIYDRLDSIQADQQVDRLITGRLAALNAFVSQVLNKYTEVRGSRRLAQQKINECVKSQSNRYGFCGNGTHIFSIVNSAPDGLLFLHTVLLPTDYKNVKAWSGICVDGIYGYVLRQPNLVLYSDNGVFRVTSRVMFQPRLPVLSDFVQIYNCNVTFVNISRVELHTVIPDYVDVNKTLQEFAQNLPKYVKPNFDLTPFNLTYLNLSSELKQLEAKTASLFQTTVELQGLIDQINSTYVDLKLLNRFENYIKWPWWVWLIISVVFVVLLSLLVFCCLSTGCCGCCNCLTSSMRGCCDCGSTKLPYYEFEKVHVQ

| Molecule | Binds to (SARS-CoV2 S; RBD) | Binds to (SARS-CoV2) | also measured |
| --- | --- | --- | --- |
| C124 (antibody, listed as Homo sapiens, V domains shown) VH: EVQLVESGGGLVQPGGSLRLSCAASGFTFSGYSMNWVRQAPGKGPEWVSYISRSSSTIYYADSVKGRFTISRDNAKNSLYLQMNSLRDEDTAVYYCAREGARVGATYDTYYFDYWGQGTLVTVSS VL: EIVLTQSPATLSLSPGERATLSCRASQSFSSYLAWYQQKPGQAPRLLIYDASNRATGIPARFSGSGSGTDFTLTISSLEPEDFAVYYCQQRNNWPPEWTFGQGTKVEIK | SARS-CoV2 | – | – |
| 2M-8E7 (antibody, listed as Homo sapiens, V domains shown) VH: EVQLVESGAEVKKPGSSVKVSCKASGGTFSSYAISWVRQAPGQGLEWMGGIIPIFGTANYAQKFQGRVTVTADESTSTAYMELSSLRSEDTAVYYCARTYSFDSSGYYYDYWGQGTMVTVSS VL: EIVLTQSPATLSLSPGERATLSCRASQSVSSYLAWYQQKPGQAPRLLIYDASNRATGIPARFSGSGSGTDFTLTISSLEPEDFAVYYCQQRSNWPPKITFGQGTRLEIK | – | SARS-CoV2 | – |
| 2M-7E9 (antibody, listed as Homo sapiens, V domains shown) VH: EVQLVESGAEVKKPGSSVKVSCKASGGTFSSFAISWVRQAPGQGLEWMGGIIPIFDTTNYAQKFQGRVTITADESTRTAYMELSSLRSEDTAVYYCARIPGWDRGTDRNWNDDWGQGTTVTVSS VL: DIVMTQSPATLSLSPGERATLSCRASQSVSNFLAWYQQKPGQAPRLLIYDASNRATGIPARFSGSGSGTDFTLTISSLEPEDFAVYYCQQRSNWPPAFTFGPGTKVEIK | – | SARS-CoV2 | – |
| 2M-9F10 (antibody, listed as Homo sapiens, V domains shown) VH: EVQLLQSGGDLIQPGRSLRLSCAASGFSFEDYAMHWVRQAPGQGLEWVSGISYNGGSIDYVDSVKGRFTISRDNAKNALYLEMNSLRPEDTAFYYCAKDSVRREYTHARVPFDNWGLGTLVTVSS VL: AIRMTQSPSSLSASVGDRVTISCRATQNINYFLNWYQQKPGRAPKLLIYAASGLQSGVPSRFSGSGTGRVFTLTINSLQPDDFATYYCQQSFVSPRTFGQGTKVDIK | – | SARS-CoV2 | – |
| C117 (antibody, listed as Homo sapiens, V domains shown) VH: QVQLVESGGGVVQPGRSLRLSCAASGFTFSTYAMHWVRQAPGEGLEWVAVISYDGSNTYYADSVKGRFTISRDNSKNTLYLQMNSLRAEDTAVYYCARDPIWFGELLSPPFVHFDYWGQGTLVTVSS VL: QSVLTQPPSVSAAPGQKVTISCSGSSSNIGNNLVSWYQQLPGTAPKLLIYENNKRPSGIPDRFSGSKSGTSATLGITGLQTGDEADYYCGAWDSSLSAGGVYVFGTGTKVTVL | SARS-CoV2 | – | – |
| C105 (antibody, listed as Homo sapiens, V domains shown) VH: QVQLVESGGGLIQPGGSLRLSCAASGFTVSSNYMSWVRQAPGKGLEWVSVIYSGGSTYYADSVKGRFTISRDNSKNTLYLQMNSLRAEDTAVYYCARGEGWELPYDYWGQGTLVTVSS VL: QSALTQPPSASGSPGQSVTISCTGTSSDVGGYKYVSWYQQHPGKAPKLMIYEVSKRPSGVPDRFSGSKSGNTASLTVSGLQAEDEADYYCSSYEGSNNFVVFGGGTKLTVL | SARS-CoV2 | – | – |
| mAb-85 (antibody, listed as Homo sapiens, V domains shown) VH: QVQLQESGPGLVKPSGTLSLTCAVSGGSITSRDWWSWVRQPPGKGLEWIGEVYHSGSTSYNPSLKSRVTISVDKSKNEFSLKLSSVTAADTAVYYCARAGNIVVMPAAQYYFDYWGQGTLVTVSS VL: EIVLTQSPSSLSASVGDRVTITCRASQDISNYLAWYQQKPGKAPKLLIYAASTLQSGVPLRFSGSGSGTDFTLTISSLQPEDFATYYCLQLHNYSSFGGGTKVDIK | – | – | Doesn't Bind to (NL63 S): NL63,; Binds to (SARS-CoV2 S): SARS-CoV2; Doesn't Bind to (SARS-CoV1 S): CoV1; Doesn't Bind to (OC43 S): OC43, |
| C017 (antibody, listed as Homo sapiens, V domains shown) VH: EVQLVESGGGLVQPGRSLRLSCAASGFTFDDYAMHWVRQAPGKGLEWVSGISWNSGTIGYADSVKGRFTISRDNAKNSLYLQMNSLRAEDTAFYYCAKAGVRGIAAAGPDLNFDHWGQGTLVTVSS VL: EIVLTQSPATLSLSPGERATLSCRASQSVSSYLAWYQQKPGQAPRLLIYDASNRATGIPARFSGSGSGTDFTLTISSLEPEDFAVYYCQQRITFGQGTRLEIK | SARS-CoV2 | – | – |
| 2M-8H10 (antibody, listed as Homo sapiens, V domains shown) VH: QVQLVESGGGVVLPGRSLRLSCAASGFTFSTFAMHWVRQAPGKGLEWVAVISDEGSNKYYADSVKGRFTISRDNSRNTLYLQMNSLRAEDTAVYYCARAFYDSNWSVGSYFDSWGQGTPVTVSS VL: DIQMTQSPDSLAVSLGERATIKCKSSQSVLHSSNNKNYLAWYQQKAGQPPSLLLYWASTRESGVPDRFSGSGSGTDFTLTISSLQAEDVAVYYCQQYYNNQWTFGQGTKVDIK | – | SARS-CoV2 | – |
| C122 (antibody, listed as Homo sapiens, V domains shown) VH: EVQLVESGGGLIQPGGSLRLSCAASGLTVSSNYMSWVRQAPGKGLEWVSVLYSGGSSFYADSVKGRFTISRDNSKNTLYLQMNSLRAEDTAVYYCARESGDTTMAFDYWGQGTLVTVSS VL: DIQLTQSPSFLSASVGDRVTITCRASQGISSYLAWYQQKPGKAPKLLIYAASTLQSGVPSRFSGSGSGTEFTLTISSLQPEDFATYYCQQLNSDSYTFGQGTKLEIK | SARS-CoV2 | – | – |
| C123 (antibody, listed as Homo sapiens, V domains shown) VH: EVQLVESGGGLIQPGGSLRLSCAASGVTVSRNYMSWVRQAPGKGLEWVSVIYSGGSTYYADSVKGRFTISRDNSKNTLYLQMNSLRAEDTAVYYCARDLSAAFDIWGQGTMVTVSS VL: DIQLTQSPSFLSASVGDRVTITCRASQGISSYLAWYQQKPGKAPKLLIYAASTLQSGVPSRFSGSGSGTEFTLTISSLQPEDFATYYCQQLNSYPPAFGQGTRLEIK | SARS-CoV2 | – | – |
| C120 (antibody, listed as Homo sapiens, V domains shown) VH: EVQLVESGGGLIQPGGSLRLSCAASGFTVSSNYMTWVRQAPGKGLEWVSLIYPGGSTYYADSVKGRFTISRDNSKNTLYLQMNSLRAEDTAVYYCAREGMGMAAAGTWGQGTLVTVSS VL: AIRMTQSPSSLSASVGDTVTITCQASQDISKYLNWYQQKPGKAPKLLIYDASNLETGVPSRFSGSGSGTDFTFTISSLQPEDIATYYCQQYDNLPQTFGGGTKVEIK | SARS-CoV2 | – | – |
| C101 (antibody, listed as Homo sapiens, V domains shown) VH: QVQLVESGGGLIQPGGSLRLSCAASGFIVSSNYMSWVRQAPGKGLEWVSVIYSGGSTFYTDSVKGRFTISRDNSKNTLYLQMNSLRAEDTAVYYCVRDYGDFYFDYWGQGTLVTVSS VL: EIVLTQSPGTLSLSPGERATLSCRASQSVSSSYLAWYQQKPGQAPRLLIYGASSRATGIPDRFSGGGSETDFTLTISRLEPEDCAVYYCQQYGSSPRTFGQGTKVEIK | SARS-CoV2 | – | – |
| C104 (antibody, listed as Homo sapiens, V domains shown) VH: QVQLQQWGAGLLKPSETLSLSCAVYGGSLSGYYWSWIRQPPGKGLEWIGEINHFGSTGYNPSLKSRVTISVDTSKSQFSVKLSSVTAADTAVYYCARKPLLYSNLSPGAFDIWGQGTMVTVSS VL: EIVLTQSPGTVSLSPGERATLSCWASQSVSASYLAWYQQKPGQAPRLLIYGASSRATGIPDRFSGSGSGTDFTLTISRLEPEDFAVYYCQQYGTTPRTFGGGTKVEIK | SARS-CoV2 | – | – |
| C115 (antibody, listed as Homo sapiens, V domains shown) VH: QVQLVESGGGLIKPGRSLRLSCTASGFTFGDYAMTWFRQAPGKGLEWVGFIRSKAYGGTTGYAASVKYRFTISRDDSKSIAYLQMDSLKTEDTAVYYCTRWDGWSQHDYWGQGTLVTVSS VL: DIVMTQSPLSLSVTPGEPASISCRSSQSLLHSNGNNYFDWYLQKPGQSPQLLIYLGSNRASGVPDRFSGSGSGTDFTLKISRVEAEDVGVYYCMQVLQIPYTFGQGTKLEIK | SARS-CoV2 | – | – |
| C110 (antibody, listed as Homo sapiens, V domains shown) VH: QVQLQQSGAEVKKPGESLKISCKGSGYSFTSYWIGWVRQMPGKGLEWMGIIYPGDSDTRYSPSFQGQVTISADKSISTAYMQWSSLKASDTAMYYCARSFRDDPRIAVAGPADAFDIWGQGTMVTVSS VL: DIQMTQSPSTLSASVGDRVTITCRASQSISYWLAWYQQKPGKAPKLLIYQASSLESGVPSRFSGSESGTEFTLTISSLQPDDFATYYCQQYNSYPYTFGQGTKLEIK | SARS-CoV2 | – | – |
| 2M-4G4 (antibody, listed as Homo sapiens, V domains shown) VH: EVQLVESGAEVKKPGASVKVSCKASGYTFTSYYIHWVRQAPGQGLEWMGVINPSGGSTTYAQKFQGRVTVTRDTSTSTVYMELSSLRSEDTAVYYCARERGDSSGYYEIITTANRRFGMDVWGQGTTVTVSS VL: QSVLTQPASVSGSPGQSITISCTGTSSDVGMYNLVSWYQQHPGQAPKLMIYEGSKRPSGVSNRFSGSKSGNTASLTISGLQAEDEAYYYCCSYAVSSTWVFGGGTKLTVL | – | SARS-CoV2 | – |
| C108 (antibody, listed as Homo sapiens, V domains shown) VH: QVQLQESGPGLVKPSGTLSLTCAVSGGSISSTNWWSWVRQPPGKGLEWIGEIYHTGSTNYNPSLKSRVTISVDKSKNQFSLKLSSVTAADTAVYYCVRDGGRPGDAFDIWGQGTMVTVSS VL: QSALTQPASVSGSPGQSITISCTGTSSDVGGYNYVSWYQQHPGKAPKLMIYDVSNRPSGVSNRFSGSKSGNTASLTISGLQAEDEADYYCNSYTSSSTRVFGTGTKVTVL | SARS-CoV2 | – | – |
| C103 (antibody, listed as Homo sapiens, V domains shown) VH: QVQLQQWGAGLLKPSETLSLTCAVSGGSLSGFYWTWIRQPPGKGLEWIGETNHFGSTGYKPSLKSRVTISVDMSRNQFSLKVTSVTAADTAVYYCARKPLLYSDFSPGAFDIWGQGTMVTVSS VL: EIVLTQSPGTLSLSPGERATLSCRASQTVTANYLAWYQQKPGQAPRLLIYGASKRATGIPDRFSGSGSGTDFTLSISRLEPEDFAVYYCQQYTTTPRTFGGGTKVEIK | SARS-CoV2 | – | – |
| 2M-9H1 (antibody, listed as Homo sapiens, V domains shown) VH: EVQLLESGGGVVQPGRSLRLSCVASGFNFNNYGMHWVRQAPGKGLEWLAALSYEGSKEHYADSLKGRFTVSRDYSRATLHLHMNSLEPEDTAVYFCAKSSKIFYLGESREVDYWGRGTLVTVSS VL: DIVMTQSPSSLSAFVGDRVTITCRASRDIGGDLSWFQQKPGKAPERLIYAASSLESGVPSRFSGSGSATEFALTITSLQPEDFATYYCLQHKSYPLTFGGGTKVDIK | – | SARS-CoV2 | – |
